Data from the RNAGym collection of RNA variant scans (doi:10.1073/pnas.2313332121).

B1: TPR t1 (parent)
chain: GACCAAUCUGCCCUCAGAGCUCGAGAACAUCUUCGGAUGCAGAGGAGGCAGGCUUCGGUGGCGCGAUAGCGCCAACGUCCUCAACCUCCAAUGCAUCCCACCACAUGAUGAUGCCUGAAGAGCCUUGGUUUUUUG

Variants of: B1
Experiment: polymerase ribozyme fitness, log enrichment relative to wild type (log ratio); higher = more active; in vitro selection for triplet polymerase activity
Procedure, shortened: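 Only genotypes with ≥10 input reads and ≥1 read per output were kept after Illumina sequencing of input and output libraries. These libraries were PCR-built, transcribed mutants of each subunit of a heterodimeric triplet polymerase ribozyme, each put through one triplicate in vitro selection round with frozen incubation at −7 °C, gel excision of extended constructs, streptavidin-bead capture and RT-PCR. Fitness is a logarithmic ratio of genotype enrichment to wild-type enrichment, from inverse-variance-weighted replicate averages, with the logarithm in base 2.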
For U7C G17U G35C U96A C97U U112A, the “polymerase ribozyme fitness (log ratio)” value was -6.44.
In the case of C31U A111G, the “polymerase ribozyme fitness (log ratio)” value is reported as -5.05.
With G10A C11U C13U C62A C79A U106C G122A the “polymerase ribozyme fitness (log ratio)” value was -3.29.
For C13G U112A, the “polymerase ribozyme fitness (log ratio)” value was 0.148.
For C20G A90C C98U C124A U126A, the “polymerase ribozyme fitness (log ratio)” value was -4.21.
For A6C C12G G57U, the “polymerase ribozyme fitness (log ratio)” value was -0.469.
With C8A G52U C89U the “polymerase ribozyme fitness (log ratio)” value was -0.556.
In the case of C4G C13U C20G A27U G71U U106A U125G, the “polymerase ribozyme fitness (log ratio)” value is reported as -5.01.
In the case of A41U G127C, the “polymerase ribozyme fitness (log ratio)” value is reported as -2.91.
In the case of G61U U129G U133A, the “polymerase ribozyme fitness (log ratio)” value is reported as -2.01.
In the case of U55C A111U, the “polymerase ribozyme fitness (log ratio)” value is reported as -4.15.
With C53U A118U G120C U133G the “polymerase ribozyme fitness (log ratio)” value was 0.183.
For G44C C94G A121G, the “polymerase ribozyme fitness (log ratio)” value was 0.2.
With G10U A18U A29U U54A C73A A121C the “polymerase ribozyme fitness (log ratio)” value was -1.7.
For C72A C76G U112G A119G, the “polymerase ribozyme fitness (log ratio)” value was -0.512.
With C56A C124A the “polymerase ribozyme fitness (log ratio)” value was 1.04.
With A37U C80U C101A the “polymerase ribozyme fitness (log ratio)” value was -2.69.
In the case of G52C C94A, the “polymerase ribozyme fitness (log ratio)” value is reported as -0.653.
For C8G C11G A24G C40U C56U C94U, the “polymerase ribozyme fitness (log ratio)” value was -2.88.
With A41U G58C C89G the “polymerase ribozyme fitness (log ratio)” value was -2.91.
In the case of G63C U87A A100U G127C, the “polymerase ribozyme fitness (log ratio)” value is reported as -2.77.
With G42C G122A the “polymerase ribozyme fitness (log ratio)” value was -2.41.
For C22G G69A C79A, the “polymerase ribozyme fitness (log ratio)” value was -5.64.
In the case of C13G G19U, the “polymerase ribozyme fitness (log ratio)” value is reported as -4.76.
For A43C G120U, the “polymerase ribozyme fitness (log ratio)” value was -2.7.
With C13U U92G the “polymerase ribozyme fitness (log ratio)” value was -2.48.
With A18U G44A A46U G48C G61U C72U C98U the “polymerase ribozyme fitness (log ratio)” value was -5.97.
In the case of G19U U21A C49A C82A G113C, the “polymerase ribozyme fitness (log ratio)” value is reported as -4.41.
For C3U C20A, the “polymerase ribozyme fitness (log ratio)” value was -2.93.
In the case of C49A C79A A119G, the “polymerase ribozyme fitness (log ratio)” value is reported as -2.87.
With C3A C20G G60A C79U C98G C99A C123G the “polymerase ribozyme fitness (log ratio)” value was -2.5.
For C12G C123A U126C, the “polymerase ribozyme fitness (log ratio)” value was 0.201.
With C28U A43U U59G C73U the “polymerase ribozyme fitness (log ratio)” value was -6.04.
In the case of G71U C114G U132A, the “polymerase ribozyme fitness (log ratio)” value is reported as -2.34.
For A6G A91C, the “polymerase ribozyme fitness (log ratio)” value was -1.54.
For A74C C82A, the “polymerase ribozyme fitness (log ratio)” value was -0.0256.
In the case of C15U C56A C62A G110C, the “polymerase ribozyme fitness (log ratio)” value is reported as -6.04.
In the case of G10A C13U C22G G35C C101A U131G, the “polymerase ribozyme fitness (log ratio)” value is reported as -4.66.
With C28U A37U G44U A90C the “polymerase ribozyme fitness (log ratio)” value was -3.61.
With A46U C62G G110A the “polymerase ribozyme fitness (log ratio)” value was -5.8.
With A100C U130C the “polymerase ribozyme fitness (log ratio)” value was -0.362.
For G45U C70A C85A A90U, the “polymerase ribozyme fitness (log ratio)” value was -6.19.
For C40A G57A, the “polymerase ribozyme fitness (log ratio)” value was -3.1.
With C11G A121G G127U the “polymerase ribozyme fitness (log ratio)” value was 0.00144.
For C40G C123U, the “polymerase ribozyme fitness (log ratio)” value was 0.0444.
In the case of A18G C20G C31A G60C C99A G110U, the “polymerase ribozyme fitness (log ratio)” value is reported as -1.91.
In the case of G35A C70U C79G C115A U133A, the “polymerase ribozyme fitness (log ratio)” value is reported as -7.56.
For A5C U55C G120U C123G U131A, the “polymerase ribozyme fitness (log ratio)” value was 0.062.
For A46U G113A, the “polymerase ribozyme fitness (log ratio)” value was -1.78.
With C13U U78C C80U the “polymerase ribozyme fitness (log ratio)” value was -0.408.
With A50U U81C the “polymerase ribozyme fitness (log ratio)” value was -1.83.
With G69C U96C the “polymerase ribozyme fitness (log ratio)” value was -2.24.
In the case of C89G C94A, the “polymerase ribozyme fitness (log ratio)” value is reported as -2.52.
For C53U A121G, the “polymerase ribozyme fitness (log ratio)” value was 1.95.
In the case of A37U C82A G120C, the “polymerase ribozyme fitness (log ratio)” value is reported as 0.889.
With C13G C56G the “polymerase ribozyme fitness (log ratio)” value was -2.09.
For A6U G60U G110U, the “polymerase ribozyme fitness (log ratio)” value was -0.996.
For A6G U7C, the “polymerase ribozyme fitness (log ratio)” value was -0.442.
In the case of C76A U106A, the “polymerase ribozyme fitness (log ratio)” value is reported as -1.33.
For G52C C56A C72G U132C, the “polymerase ribozyme fitness (log ratio)” value was -3.89.
For C49A G71A C101A C114A, the “polymerase ribozyme fitness (log ratio)” value was -4.05.
For G47A G48A, the “polymerase ribozyme fitness (log ratio)” value was -1.62.
With G47U C102U C124A U129C the “polymerase ribozyme fitness (log ratio)” value was -2.98.
In the case of A46G G61U, the “polymerase ribozyme fitness (log ratio)” value is reported as -0.252.
With C70A A105G the “polymerase ribozyme fitness (log ratio)” value was -4.48.
In the case of G10A G35A G77A, the “polymerase ribozyme fitness (log ratio)” value is reported as -5.04.
In the case of U14C A18G C49G G61A G69A G113A, the “polymerase ribozyme fitness (log ratio)” value is reported as -5.84.
With A6C C11A C72G C85U U112G the “polymerase ribozyme fitness (log ratio)” value was -2.46.
With A43C A46C U96A U106A U116G C123A the “polymerase ribozyme fitness (log ratio)” value was -7.89.
For A75G C98U, the “polymerase ribozyme fitness (log ratio)” value was -0.624.
In the case of C3A U33A C86A U112G, the “polymerase ribozyme fitness (log ratio)” value is reported as -6.24.
In the case of U14G C15G, the “polymerase ribozyme fitness (log ratio)” value is reported as -5.02.
In the case of C56U G61C C97U A103U C123G, the “polymerase ribozyme fitness (log ratio)” value is reported as -7.29.
With G10A G58C the “polymerase ribozyme fitness (log ratio)” value was 0.631.
With C20U C80U C82G C85G the “polymerase ribozyme fitness (log ratio)” value was -3.74.
In the case of U9C G35U C101A, the “polymerase ribozyme fitness (log ratio)” value is reported as -5.93.
With C70U C86U the “polymerase ribozyme fitness (log ratio)” value was -1.4.
For C49U A95U U130G, the “polymerase ribozyme fitness (log ratio)” value was -1.71.
For C11G U14C A41G C56G, the “polymerase ribozyme fitness (log ratio)” value was -0.436.
With U7C U9C the “polymerase ribozyme fitness (log ratio)” value was 0.297.
With A46G G69A G110A the “polymerase ribozyme fitness (log ratio)” value was -4.77.
For C12A, the “polymerase ribozyme fitness (log ratio)” value was -0.413.
In the case of U9G C85U C97A C115G, the “polymerase ribozyme fitness (log ratio)” value is reported as -4.92.
For A50C G60C U81G C86U G120C, the “polymerase ribozyme fitness (log ratio)” value was -1.06.
